According to publication PMC5995969, “Structural basis for the regulation of human 5,10-methylenetetrahydrofolate reductase by phosphorylation and S-adenosylmethionine inhibition” (Nature Communications, 2018):

Columns and labels:
[1] = tested on: NC(=O)C1=CN([C@@H]2O[C@H](COP(=O)(O)OP(=O)(O)OC[C@H]3O[C@@H](n4cnc5c(N)ncnc54)[C@H](OP(=O)(O)O)[C@@H]3O)[C@@H](O)[C@H]2O)C=CC1; test: purified protein; settings: FAD catalytic domain; binding site shared with CH2-THF, next to FAD; 46.0 °C
[2] = tested on: Nc1nc2c(c(=O)[nH]1)N1CN(c3ccc(C(=O)N[C@@H](CCC(=O)O)C(=O)O)cc3)CC1CN2; test: purified protein; settings: FAD catalytic domain; binding site shared with NAD(P)H, next to FAD; 46.0 °C

5,10-methylenetetrahydrofolate reductase (MTHFR) (Homo sapiens)
Km [1]: 23.5 µM | Km [2]: 22.4 µM
